These results are taken from patent publication US20250109199A1.

As a reminder, the Kd is the free concentration of one partner at which half of the binding sites on the other are occupied at equilibrium, for simple one-to-one binding. The low end stands for higher affinity, the high end for lower affinity.

The target of assay [1] is EEEV virus-like particles (VLPs), strain PE-6 (Eastern equine encephalitis virus, strain PE-6).
Assay [2] concerns the target EEEV virus-like particles (VLPs), strain FL93-939, wild type (Eastern equine encephalitis virus, strain FL93-939).

In assay [1], “monovalent VLDLR LA(1-3) (from UniProt P98155 31-151) (receptor)” returned a Kd of 33.8 nM. In turn, “monovalent VLDLR LA(1-4) (from UniProt P98155 28-190) (receptor)” had a Kd in assay [1] of 37 nM. Consider “monovalent VLDLR LA(1-6) (from UniProt P98155 28-275) (receptor)”, for which the dissociation constant (Kd) stood at 15 nM in assay [1] and 50 nM in assay [2].

In assay [1], “monovalent VLDLR LA(1-2) (from UniProt P98155 31-110) (receptor)” showed a Kd of 1000 nM and a fold higher affinity than LA(2-3) of 10 fold. Turning to “monovalent VLDLR LA(1-5) (from UniProt P98155 28-231) (receptor)”, in assay [1], the Kd came to 14.5 nM. Same read-out and setting: next, “monovalent VLDLR LA(2-3) (from UniProt P98155 70-151) (receptor)”: 14000 nM.
